# Assay results as given in publication doi:10.1101/857730.
# Target: Photorhabdus luminescens TcdA1 (TcA subunit of the Tc toxin) (P. luminescens) (UniProt Q9RN43)
# Test: cryo-EM structure
substance,measurement,value
"Photorhabdus luminescens TcdA1 (TcA subunit of the Tc toxin), Q9RN43 1-2516",stoichiometry N,5
